According to publication PMC9314330, “Structural basis of human TREX1 DNA degradation and autoimmune disease” (Nature Communications, 2022):

Legend:
[1] = biological target: the molecule itself; assay: crystal structure; WT hTREX1 with 22-nt Y-form dsDNA (1:1.3 protein:DNA), 0.05 M Li2SO4, 0.1 M Bis-Tris pH 6.5, 25% PEG-3350, 18 °C; spacegroup P 1 21 1, 3 copies of hTREX1-DNA dimer in the asymmetric unit
[2] = biological target: the molecule itself; assay: crystal structure; apo hTREX1 chimeras, hanging-drop vapor diffusion at 18 °C; spacegroup P 41 21 2, one hTREX1 dimer in the asymmetric unit
[3] = biological target: T1, hTREX1 K160R (Homo sapiens, UniProt Q9NSU2 1-242, K160R); assay: thermal shift (thermofluor); 10 uM protein; 10 or 20 uM DNA; higher than WT; Tm about 63.2 C at 20 uM DNA (mean of source data, column order inferred); EMSA: 20 mM HEPES-NaOH pH 7.8, 75 mM KCl, 10 mM EDTA, 1 mM DTT, 4 C 30 min, 2% agarose; thermofluor: 20 mM Tris-HCl pH 7.5, 75 mM KCl, 1 mM TCEP, DNA preincubated at 4 C 30 min, 20-95 C ramp; crystals: 20 mM HEPES-KOH pH 7.5, 78 mM KCl, 1 mM TCEP over 0.05 M Li2SO4, …; details: protein: recombinant; tags: none (His-SUMO2 removed by SENP2); chain copies: 2; blunt; self-complementary strand
T1 sequence: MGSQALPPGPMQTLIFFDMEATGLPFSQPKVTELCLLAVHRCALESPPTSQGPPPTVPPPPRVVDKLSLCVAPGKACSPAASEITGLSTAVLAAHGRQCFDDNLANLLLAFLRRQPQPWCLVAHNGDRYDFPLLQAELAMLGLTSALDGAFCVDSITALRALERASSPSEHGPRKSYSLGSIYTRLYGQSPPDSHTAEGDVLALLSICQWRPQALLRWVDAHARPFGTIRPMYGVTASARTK

B1: human TREX1 (wildtype), N-terminal enzymatic domain, amino acids 1-242 (enzyme, UniProt Q9NSU2-3 1-242, looked up)
chain: MGSQALPPGPMQTLIFFDMEATGLPFSQPKVTELCLLAVHRCALESPPTSQGPPPTVPPPPRVVDKLSLCVAPGKACSPAASEITGLSTAVLAAHGRQCFDDNLANLLLAFLRRQPQPWCLVAHNGDRYDFPLLQAELAMLGLTSALDGAFCVDSITALKALERASSPSEHGPRKSYSLGSIYTRLYGQSPPDSHTAEGDVLALLSICQWRPQALLRWVDAHARPFGTIRPMYGVTASARTK
notes: human TREX1, C-terminal truncation, amino acids 1-242 of the 314-residue protein (catalytic domain 1-242, C-terminus 243-314); numbers count on: the 314-residue form; Crystallised with 22-nt Y-form dsDNA (2:2 complex); also called hTREX1; WT hTREX1; source: E. coli BL21-RIL DE3, purified (Ni-NTA, Heparin HP, Superdex S75)
binding result [1]: binds

B2: hTREX1 Chi 5.1 (A5T/P8H/P10H), amino acids 1-242 (enzyme, human, UniProt Q9NSU2-3 1-242, looked up)
chain: MGSQTLPHGHMQTLIFFDMEATGLPFSQPKVTELCLLAVHRCALESPPTSQGPPPTVPPPPRVVDKLSLCVAPGKACSPAASEITGLSTAVLAAHGRQCFDDNLANLLLAFLRRQPQPWCLVAHNGDRYDFPLLQAELAMLGLTSALDGAFCVDSITALKALERASSPSEHGPRKSYSLGSIYTRLYGQSPPDSHTAEGDVLALLSICQWRPQALLRWVDAHARPFGTIRPMYGVTASARTK
notes: human TREX1, amino acids 1-242 of the 314-residue protein, with three mouse-like mutations; numbers count on: the 314-residue form; also called human TREX1 Chi 5.1; source: E. coli BL21-RIL DE3, purified (Ni-NTA, Heparin HP, Superdex S75)
binding result [2]: binds

B3: 30-bp dsDNA (dsDNA)
DNA 1: GCTCGAGTCATGACGCGTCATGACTCGAGC
DNA 2: GCTCGAGTCATGACGCGTCATGACTCGAGC
binding result [3]: binds
